This is an account of results in FireProtDB (doi:10.1126/science.aai7825).

The conditions of the series: Escherichia coli (strain K12); pH 7.5; Thermal; Intensity; HEPES 20mM; transition: 2.

Chain of Adenylate kinase wild type, P69441 (P69441 whole entry): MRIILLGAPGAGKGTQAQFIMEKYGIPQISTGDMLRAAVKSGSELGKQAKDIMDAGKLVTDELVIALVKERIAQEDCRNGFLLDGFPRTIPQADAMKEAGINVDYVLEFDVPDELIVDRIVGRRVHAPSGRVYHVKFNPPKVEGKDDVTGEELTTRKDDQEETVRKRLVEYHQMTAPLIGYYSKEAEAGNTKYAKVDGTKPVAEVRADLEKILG

Broadly, the Tm is the temperature at which the thermal transition is half complete. As to Adenylate kinase wild type, P69441, the melting temperature (Tm) worked out at 42.5 °C.
